Legend:
[1] = test system: APP/PS1 mice; assay: Novel object recognition (NOR) assessment; format: in vivo, transgenic APP/PS1 mice; conditions: all groups compared
Description: (§1) Animals: All animal studies were carried out under the approved animal protocol (AUS-74-11) granted by Institutional Animal Care and Use Committee (IACUC) at The University of Kansas. Animal Care Unit (ACU) personnel and veterinarians were involved in the care of the animals used in this study. Female transgenic APP/PS1 (MMRRC stock #34832-Jax) were obtained from Jackson Laboratory (Bar Harbor, Me.) and housed until at least 6 months of age. Mice received intravenous (i.v.) injections of either BDNF (5.7 nmol/kg)+ADTC5 (10 μmol/kg; n=7), BDNF alone (5.7 nmol/kg; n=6), or vehicle (n=6) every 4 days, for a total of 8 injections. At the end of the study, the mice were euthanized via CO2 inhalation and perfused with PBS immediately followed by 4% formalin fixative solution. The brains were extracted and post-fixed overnight in the perfusion-fixation solution then transferred to 70% ethanol PBS solution for paraffin embedding.
Novel object recognition assessment: Twenty-four hours following the Y-maze assessment, the mice were subjected to Novel Object Recognition (NOR) assessment. […] The mice were allowed to explore the objects for 10 min and the total amount of time each mouse spent interacting with each object was measured. […]

[2] = test system: amyloid beta plaques; assay: Amyloid beta plaque load in hippocampus, Congo red staining; format: in vivo, transgenic APP/PS1 mice; conditions: APP/PS1 mice; 8 injections; all three groups compared; n=5
Description: as §1
Coronal brain sections (10 μm thickness) were generated and mounted onto gelatin-coated slides (Superfrost Plus, Thermo Fisher Scientific, Waltham, Mass.). For both Aβ histology and NG2 receptor immunohistochemistry, sections were deparaffinized using xylene and serially hydrated from 95% ethanol to distilled water. […] Aβ plaque levels were quantified by counting the number of plaques from the hippocampus at 10× magnification from 5 random sections per group (n=5).

B1: BDNF: recombinant brain-derived neurotrophic factor (13 kDa monomer), Peprotech (protein, UniProt P23560 19-247, looked up)
Neurotrophic factor BDNF …: APMKEANIRGQGGLAYPGVRTHGTLESVNGPKAGSRGLTSLADTFEHVIEELLDEDQKVRPNEENNKDADLYTSRVMLSSQVPLEPPLLFLLEEYKNYLDAANMSMRVRRHSDPARRGELSVCDSISEWVTAADKKTAVDMSGGTVTVLEKVPVSKGQLKQYFYETKCNPMGYTKEGCRGIDKRHWNSQCRTTQSYVRALTMDSKKRIGWRFIRIDTSCVCTLTIKRGR
For B1, the “total time spent with either of the two objects” value [1] was “no significant difference” and the “amounts of amyloid beta plaques in hippocampus” value [2] was “no significant difference”.

— patent US20220227815A1, “COMPOSITIONS AND METHODS USEFUL IN TREATING BRAIN DISEASES” (University of Kansas, priority 2019, published 2022)
